Test results from paper PMC7430652.

Molecular target: 39S large mitoribosome subunit (mtLSU) (human (endogenous in HEK293T and 143B))
Test: co-sedimentation

B1: GTPBP5 (natural protein)
chain: MAPARCFSARLRTVFQGVGHWALSTWAGLKPSRLLPQRASPRLLSVGRADLAKHQELPGKKLLSEKKLKRYFVDYRRVLVCGGNGGAGASCFHSEPRKEFGGPDGGDGGNGGHVILRVDQQVKSLSSVLSRYQGFSGEDGGSKNCFGRSGAVLYIRVPVGTLVKEGGRVVADLSCVGDEYIAALGGAGGKGNRFFLANNNRAPVTCTPGQPGQQRVLHLELKTVAHAGMVGFPNAGKSSLLRAISNARPAVASYPFTTLKPHVGIVHYEGHLQIAVADIPGIIRGAHQNRGLGSAFLRHIERCRFLLFVVDLSQPEPWTQVDDLKYELEMYEKGLSARPHAIVANKIDLPEAQANLSQLRDHLGQEVIVLSALTGENLEQLLLHLKVLYDAYAEAELGQGRQPLRW
B1 showed a percent of total GTPBP5 co-sedimenting of 60%.
